Experimental data from the nanobody polyreactivity screen of Harvey et al. (2022).

assay: yeast display, Sf9 membrane polyspecificity reagent, FACS + sequencing; frameworks hold sequencing errors
Procedure, shortened: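 Using colony PCR, genes from sorted yeast display clones were amplified, then sequenced on MiSeq at 2 × 250 and filtered by CDR length. The clones had been stained with 10% biotinylated, detergent-solubilized Sf9 membrane reagent for 1 hour at 4 °C and sorted by FACS into low and high (top ~1%) gates on anti-HA and streptavidin fluorescence. Polyreactivity labels come from the gate of origin.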

Row | Sequence | polyreactivity (PSR sort gate)
1 | QVHLVESGGGLVQAGGRLRLSCAASGRIFYTYAMGWYRQAPGKERELVAAITSGGSTYYADSVKGRFTISRDNAKNTVYLQMNSLKPEDTAVYYCNKVSYYRNEYWGQGSQVTVSS | high polyreactivity
2 | QVLIVESGGGLVQAGGSLRLSCADSGLTLAHYTMGWYRQSPGKERELVAAITFSGGRTYYADSVKGRFTISRDNAKNTVYLQMNSLKPEDTAVYYCNDEYQWGGYGYDYWGQGTQVTVSS | low polyreactivity
3 | QVQLVESGGGLVQAGGSLRLSCAASGSIFAGYAMGWYRQAPGKDRELVAAINWTGDSTYYADSVKGRFTNSRDNAKNTVYLQMNSLKQEDTAVYYCAAIRRQKGLWDYYYWGQGTQVTVSS | low polyreactivity
4 | QVQLVESGGGLFQAGGSLRLSCADSGSTFSLYAMGWDRQAPGKDRELVAAITWSGGSTYYADSEKGRFTISRDNAKTTVYLQMTSLPPEDTAVYYCAAHRIGYYLRVSYRGKYDHWGQGTQVTVSS | low polyreactivity
5 | QVQLVESGGGLVQAGGSLRLSCAASGLIFYDNMGWYRQAPGKERELVAAISSSGGSTSYADSVKGRFTISRDNAKNTVYLQMNSLKPEDTAVYYCAADVELWVFRGQQYDYWGQGTQVTVSS | low polyreactivity
6 | QVQLVESGGGLVQAGGSLRLSCAAYGFIFRNYAMGWDRQAPGKERELVAAITWRGGSTYYADSVKGRFTISRDNAKNTVYLQMNSLKPEDTAVYYCAARGYRSREDYWGQGTQVTVSS | high polyreactivity
7 | QVQLVESGVGLVQAGGSLRLSCAASGRTFPYYAMGWYRQAPGKERELVAAISRRGASTYYADSVKGRFTISRDNAKNTVYLQINSLKPEDTAVYYCNAVYRGYYSGELDYWGQGTQVTVSS | high polyreactivity
8 | QVQLVESGGGLVQAGGSLRLSCAASGITFGSKVMGWYRQPPGKEWEFVAVINWSTGSTYYADSVKGRFTISRDNAKNTVYLQMNSLKPEDTAVYYCNTDSGNEWTSYDYWGQGTQVTVSS | low polyreactivity
9 | QVQLVESGGGLVQAGGSLRLSCAASGSTFHLYAMGWNRQAPGKERQFVAAIRGRGGNTYADSVKGRFTISRDNAKNTVYLQMNSLKPEDTAVYYCAAPLLRDLRSPYSYNYWGQGSQVTVSS | low polyreactivity
10 | QVQLVESGGGLVQAGGSLRLSCAASGSIFEYYAMGWYRQAPGKERELVATITGTDSTYYADSVKGRFTISRDNAKNTVYLQMNSLKPEDTADCAADRAASRPDYDYWGQGTQVTVSS | low polyreactivity
11 | QVQLVESGGGLVQAGGSLSLSCPASGRIFRWNAMGWYRQAPGKEREFVAAISWSGGSTYYADSVKGRFTISRDNAKNTVYLQMNSLKPEDTAVYYCNKVGYYGVGTSQEFDYWGQGTQVTVSS | high polyreactivity
12 | QVQLVESCGGLVQAGGSLRLSCAASGSTFVVNAMGGYRQAPGKERELVADISFTGDSTFYADSVKGRFTISRDNAKNTVYLEMNSLKPDDTAVYYCAADFRRVFSKYSYYLYFDFDYWGQGTQVTVSS | low polyreactivity
13 | QVQLVESGGGLVQAGCSLRLSCAASGSILWHYAKGWYRQAPGKERELVAFISSSGSTYYADSVKGRFTISRDNAKNTVYLQMNSLKPEDTAVDYCNAYRLYSGYVPYDYWGQCTQVTVSS | high polyreactivity
14 | QVQLVESGGGLVQAGGRLRLSCAASGRIFRYNAMGWYRQAPGKERELVASITSAGSTNYADSVKGRFTISRDNAKITVYLLMNSLKPEDTEVYYCNKRRAYGYYLFDYWGQGTQVTVSS | high polyreactivity
15 | QVQLEESGGGLVQAGGSLRLSCAASGRIFPRNAMGWYRQATGKERELVASITSGGSTNYADSVKGRFTISRDNAKNTVYLQMHSLKPEDTAVYYCAADRTGYQLETTEYDYWGQGTQVTVSS | high polyreactivity
16 | QVQHVESGGGLVQAGGRLRLSCAASGSTFQLYAMGWYRQAPGKERELVASISWSGGSTYYADSVTGRFTISRDNAKNTVYLQMNSLKPEDTAVYYCNADFWWRYRPGAVFRSYGYWGQGTQVTVSS | low polyreactivity
17 | QDQLVESGGGLVQAGGRLRLSCAASGRTFYWNAMGWYRQAPGKERELVAAINGGGSTYYADSVKGRFTISRDNAMNTVYLQINSLKQEDSAVYYCNAESYEFHRAWGDYDYWGHGTQVTVSS | low polyreactivity
18 | QVQLVESGGGLVHAGGSLRLTCAASGLTFAYYAMGWYRQAPGKERELVAAISWNGGRTYNADSVKGRFTISRDNAKNTVYLQMNSLKPEDTAVYYCAAQVTSSFYWGQGTQVTVSS | high polyreactivity
19 | QVQLVESGGGLVQAGGSLRLSCADSGFIFSHNVMGWYRQAPGKERELVAAISASGGSTYYADSVKGRFTISRDNAKNTVYLQMNSLKPEDTAVYYCAKVTWGTVWYRSPSEYDYWGQGTQVTVSS | low polyreactivity
20 | QVQLQESGGGLVQVGGSLRLSCAASGTIFNYGFLGRNRQAPGKERELVASINLGGITNYADSVKGRFTISRDNAKNTVYLQMISLKPEDTAVYYCAAYVVTGQNYGYWGQGTQVTVSS | low polyreactivity
21 | QVQLVESGGGLVQAGGSLRLSCAASGRNFSFYAMGWYRQAPGQERELVAAITYTDGSTYADSVKGRFTISRDNAKNTVYLQMNSLKPDDTAVYYFATRYRWTPYDYWGQGTQVTVSS | low polyreactivity

Row | Sequence | polyreactivity (PSR sort gate)
22 | QVQLVESGGGLVQAGGSLRLSCAASGSIFSGNTMGCYRQAPGKERELVAAISGRGSNTYYADSVKGRFTISRDNAKNTVYLQMNSLKPEDTAVYYCAGPWVVRRTAYDYWGQGTQVTVSS | high polyreactivity
23 | QVQLVESGGGLVQAGGSLRLSCAASGFTFGYNAMGWYRQAPGKERELVAAITSGGSTNYADSVKGRFTISRDNAKNTVYLQMNSLKPEDTAVYYCATGVRPWRKKPVEFYHRGQGTQVTVSS | low polyreactivity
24 | QVQLVESGGGLVQAGGSLRLSCAASGRTFDRNAMGWYRQAPGKERELVAAITSRGGRTYYADSVKGRFTISRDNAKNTVYLQMNSLKPEDTAVYYCAAQGRGHRFGDSRDNYWGQGTQVTVSS | high polyreactivity
25 | QVQLVESGGGLVQAGGSLRLSCAASGRTFYGNAMGWYRQAPGKERELVAAISWSGCGTYYADSVKGRFTISRDNAKNTVYLQMNSLKPEDTAVYYCARTLFGRSANRYGYWGQGTQVTVSS | high polyreactivity
26 | QVLLVESGGGLVQAGGSHRLSCAASGITIRFYAMGWYRQAPGKEREFHAAISRSGSTYYADSVKGRFTISRDNAKNTVYLHLNSVKPEDTAVYYCAADSYRSAQGLDYWGQGTQVTVSS | high polyreactivity
27 | QVQHVESGGGLVQAGGSLRLSCAASGFTFWYYDMGWSRQAPGKERELVAAITNGGRTYYADSVKGRFTISRDNAKNTVYLQMNSLKPEDTAVYYCAAGRWRSGRAEDYWGQGTQVTVSS | high polyreactivity
28 | QVQLVESGGGLVQAGGSLRLSCAASGSTFDTYGMGWYIQAPGKERELDASISSRGGSTYYADSVEGRFTISRDNAKNSVYLQMNSLKPDDTAVYYCAADWLSWFHGYGMYYWGQGTKVTVSS | low polyreactivity
29 | QVQLVESGGGLVQAGGSLRLSCAASGRIFRSNARGWYRPAPGKERELVAAISSNGGSTYYADSVKGRFTISRDNAKNTVYLQMNSLKPEDTAVYYCAARVYYPVRYGYWGQGTQVTVSS | high polyreactivity
30 | QVQLVESGGGLVLAGGSLRLSCAASEFIFARNGMGWYIQAPGKERELVAAITKSGSTYADSVKGRFTISRDNAKNTVYLQMNSLKPEDTAVYYCNKDPGNVSSFTGGGYWGQGTQVTVSS | low polyreactivity
31 | QVQLVESGGGLVQAGGSLRLSCAASGSTLLSYTMGWYRQAPGKERELVASITTSGGSTYYADSVKGRFTISRDNAKNTVYLQMNSLKPEDTAVYYWGQGTQVTVSS | low polyreactivity
32 | QVQLVESGGGLVQAGGSLRLSCAASGRTFIEYAMGWYRQAPGKERELVAAISRNDGGSTYYADSVKGRFTISRDNAKNTVYLQMNSLKPEDTAVYYCAARRYISAHVRYGSWGQGTQVTVSS | high polyreactivity
33 | QVQLLDSGGGLVQAGGSLRLSCAASGSTIAYYDMGWYRQAPGKERELVAAISWSGGSTYYADSVKGRFTISRENAKKTVYLQMNSLKPEDTAVYYCNRLLGYFTDSSGSPMGYWGQGTQVTVSS | high polyreactivity
34 | QVQLVESGRGLVQAGGSLPLSSASSGLTFKTYAMGRYRQAPGKVSELVAAITSGGTSTYYADSVKGRFTISRDNAKNTVYFQMNSLKPEDTAVYYCAARYYFSYSVGYYYWGQGTQVTVSS | high polyreactivity
35 | QFQLVESGGGLVQAGGSLRLSCAASGRTFASNAMGWYRQAPGKERELVADITWDGGRTYYADSVKGRFTISRDNAKNTVYLQMNSLKPEDTAVYYCAARDTFPRRYGYWGQGTQVTVSS | high polyreactivity
36 | QVPLVESVGGLVQAGGSLRISCAASGGIFRYYAMGRYRQAPGNERELVAAITSSGTSTYYADSVKGRFTISRDNAKNTVYLQMNSLKPEDTAVYYCAAETYYSIYDYWGQGTQVTVSS | high polyreactivity
37 | QVQLVESGGGLVQAGGSLRLRCAASGRTFIVYAMGWYRQAPGKERELVARISSGSRTSYADSVKGRFTISRDNAKNTVYLQMNSLKPEDTAVYYCAKSRVIKYEFDYWGQGTEVTVSS | low polyreactivity
38 | QVQLEESGVGLVQAGGSLRLSCAASGRTFHIYAMGWYRQAPGKERELVADIRGRSGSTYYADSVKGRFTISRDNAKITVYLQMNSLKPEDTAVYYCAVGRYPYCSARYRFDYWGQGTQVSVSS | high polyreactivity
39 | QVQLVESGGGLVKAGGSLRLSCAASGSTFGLYVMGWYRQAPGKERELVAAINRIGSRTYYADSVKGRFTISRDNAKNTVYLQMNSLKPEDTAVYYCAADYDYTSPGDDYWGQGTQVTVSS | high polyreactivity
40 | QVQLVESGGGLVQAGGSLRLSCAASGFTFTRYAMGWYRQAPGKERELVAAISWSGGSTYYADSVKGRFTISRDNAKNTVYLQMNSLKPEDTAVYYCAKRGTVRQGGYGYWGQGTLVTVSS | high polyreactivity
41 | QVQLLESGGGLVQAGGSLRLSCAASGSIIPYYAMGWYRQAPGKESELVAAITSGGGSTYYADSVKGRFTISRDNAMNSVYLQMNSLKPEDTAVYYCAAVLTSYYGGDYWGQGTQVTVSS | low polyreactivity
